The target of the assay is His-tagged dynamin 2b (dynamin 2-WT, baculovirus) (rat). In words: not stated; polymerization of recombinant (baculovirus) dynamin 2 with or without Bis-T-23; method in Supplementary Figures S2E, F.

B1: His-tagged dynamin 2b (dynamin 2-WT, baculovirus) (enzyme)
chain: MGNRGMEELIPLVNKLQDAFSSIGQSCHLDLPQIAVVGGQSAGKSSVLENFVGRDFLPRGSGIVTRRPLILQLIFSKTEYAEFLHCKSKKFTDFDEVRQEIEAETDRVTGTNKGISPVPINLRVYSPHVLNLTLIDLPGITKVPVGDQPPDIEYQIKDMILQFISRESSLILAVTPANMDLANSDALKLAKEVDPQGLRTIGVITKLDLMDEGTDARDVLENKLLPLRRGYIGVVNRSQKDIEGRKDIRAALAAERKFFLSHPAYRHMADRMGTPHLQKTLNQQLTNHIRESLPTLRSKLQSQLLSLEKEVEEYKNFRPDDPTRKTKALLQMVQQFGVDFEKRIEGSGDQVDTLELSGGARINRIFHERFPFELVKMEFDEKDLRREISYAIKNIHGVRTGLFTPDMAFEAIVKKQLVKLKEPSLKCVDLVVSELATVIKKCAEKLSSYPRLREETERIVTTYIREREGRTKDQILLLIDIEQSYINTNHEDFIGFANAQQRSTQLNKKRAIPNQGEILVIRRGWLTINNISLMKGGSKEYWFVLTAESLSWYKDEEEKEKKYMLPLDNLKIRDVEKGFMSNKHVFAIFNTEQRNVYKDLRQIELACDSQEDVDSWKASFLRAGVYPEKDQAENEDGAQENTFSMDPQLERQVETIRNLVDSYVAIINKSIRDLMPKTIMHLMINNTKAFIHHELLAYLYSSADQSSLMEESAEQAQRRDDMLRMYHALKEALNIIGDISTSTVSTPVPPPVDDTWLQNTSSHSPTPQRRPVSSVHPPGRPPAVRGPTPGPPLIPMPVGATSSFSAPPIPSRPGPQNVFANNDPFSAPPQIPSRPARIPPGIPPGVPSRRAPAAPSRPTIIRPAEPSLLD
modifications: not checked
As for B1, the fold increase of polymerization with Bis-T-23 against without Bis-T-23 turned out to be 30 times.
